Results published in patent US20250388666A1 (BRIGHAM AND WOMEN S HOSPITAL, published 2025).
Where “and” joins values, the source holds several entries; their conditions need not be identical. Identical values can stand only once.

Tests used:
[1] = target: T1, CEACAM1 (Sino Biological) (human, UniProt P13688 35-428, limits assumed); assay: SPR single-cycle
T1 construct: may be the same as CEACAM1-HIS; also called hCEACAM1; biotinylated soluble CEACAM1
T1 sequence: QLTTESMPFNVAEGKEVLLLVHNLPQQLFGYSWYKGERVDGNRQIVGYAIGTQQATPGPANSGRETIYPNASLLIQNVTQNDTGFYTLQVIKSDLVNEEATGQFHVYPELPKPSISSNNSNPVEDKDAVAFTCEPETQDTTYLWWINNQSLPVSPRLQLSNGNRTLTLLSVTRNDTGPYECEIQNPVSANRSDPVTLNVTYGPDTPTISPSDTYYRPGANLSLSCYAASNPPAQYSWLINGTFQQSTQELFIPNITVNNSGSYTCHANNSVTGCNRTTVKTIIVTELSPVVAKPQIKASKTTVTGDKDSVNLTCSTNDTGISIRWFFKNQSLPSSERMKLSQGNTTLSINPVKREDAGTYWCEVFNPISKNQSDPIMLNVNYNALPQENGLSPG
How it was run: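 Humanized affinity-matured IgGs from crude supernatants captured on Protein A to ~100 RU, with CEACAM1 analyte injected at 25–100 nM (three-point, two-fold) in HBS-P+ without regeneration. 200 s association per injection, 300 s single dissociation; reference-channel and blank subtracted.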

[2] = target: T1, CEACAM1 (Sino Biological); assay: SPR single-cycle; one of the two experiments; the Parent of the other experiment reads 551 nM (r135)
[3] = target: T2, CEACAM6 on transfected HeLa cells (UniProt P40199 35-320, limits assumed); assay: flow cytometry, transfected HeLa
T2 construct: whole, on cells; also called C6
T2 sequence (looked up): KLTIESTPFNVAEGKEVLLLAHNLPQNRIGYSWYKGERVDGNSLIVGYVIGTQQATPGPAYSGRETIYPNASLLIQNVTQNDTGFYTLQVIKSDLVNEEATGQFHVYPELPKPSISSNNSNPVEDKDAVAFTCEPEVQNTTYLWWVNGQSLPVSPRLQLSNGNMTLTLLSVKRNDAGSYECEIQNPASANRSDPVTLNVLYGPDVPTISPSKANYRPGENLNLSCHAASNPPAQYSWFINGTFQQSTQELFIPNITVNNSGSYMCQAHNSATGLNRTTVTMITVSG
How it was run: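 HeLa cells transfected separately with CEACAM1, CEACAM5 or CEACAM6 were stained with test antibodies, then fluorochrome-conjugated anti-isotype (human IgG4 or mouse IgG1) secondary plus DAPI viability dye. Binding read by flow cytometry.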

[4] = target: T3, CEACAM1-HIS (Sino Biologics Inc.) (Homo sapiens (Human), UniProt P13688 35-428); assay: SPR single-cycle, IgG on Protein A
T3 construct: bought; not shown: His tag
T3 sequence: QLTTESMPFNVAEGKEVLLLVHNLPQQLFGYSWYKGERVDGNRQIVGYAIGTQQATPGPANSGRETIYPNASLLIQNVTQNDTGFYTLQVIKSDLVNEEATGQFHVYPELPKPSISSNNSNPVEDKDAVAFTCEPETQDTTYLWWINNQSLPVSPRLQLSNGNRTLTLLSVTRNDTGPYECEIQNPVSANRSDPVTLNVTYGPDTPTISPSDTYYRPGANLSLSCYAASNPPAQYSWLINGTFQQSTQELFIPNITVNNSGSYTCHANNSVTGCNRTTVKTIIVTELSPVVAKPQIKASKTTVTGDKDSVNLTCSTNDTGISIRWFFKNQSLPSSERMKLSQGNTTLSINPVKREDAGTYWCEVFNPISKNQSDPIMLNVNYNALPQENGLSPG
How it was run: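 Single-cycle kinetics at 25° C in HBS-P+ (pH 7.4), antibodies from HEK EBNA supernatants at 1 μg/mL captured on Protein A (~100 RU). CEACAM1 injected at 3.125–50 nM (2-fold, 5 points), 150 s association, 150 s dissociation. Reference-channel and blank-run subtraction applied.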

Binder | Kd [1] [nM] | fold better than Parent (KD) [1] [fold] | Kd [2] [nM] | relative fluorescence intensity [3] | Kd [4]
VH2 N56Q/Vκ4 S27(f)A IgG (antibody, V domains shown, IgG4 S241P, kappa; also called Parent; Parent IgG) VH: EVQLLESGGGLVQPGGSLRLSCAASGFSFSDYYLYWVRQAPGKGLEWVATISVGGGQTSYADSVKGRFTISRDNSKNTLYLQMNSLRAEDTAMYYCTRGLYYGPAWFAYWGQGTLVTVSS VL: not shown | 551 | 1 | 159 | 1.31 | –
chimeric parental antibody VH0/Vκ0 (antibody, IgG4, V domains shown, IgG4 (S241P), kappa; also called Chimera; chimeric antibody) VH: EVQLVESGGGFVKPGGSLKLSCAASGFSFSDYYLYWVRQTPEKRLEWVATISVGGGNTSYPDSVKGRFTISRDNAKNNLYLQMSSLKSEDTAMYYCTRGLYYGPAWFAYWGQGTLVTVSA VL: not shown | – | – | – | – | 47.6 nM and 43.2 nM
